Experimental data taken from US20210246166A1 (Bayer, published 2021).
Numbered stars: 1 amine (or outer) side, 2 acyl side, 3 side chain; on linkers, the order of the positions; unused ones are H or OH. Bridge positions count the residues as written; N and C are the ends. Square brackets hold non-standard residues; d marks the D form. Ends that are not written are not given here. * marks the point of attachment. (Me)R = N(5)-methyl-L-arginine, CN(CCC[C@H](N[*:1])C(=O)[*:2])C(=N)N; Oic = O=C(O)[C@@H]1C[C@@H]2CCCC[C@@H]2N1; Phe(4-Br) = N[C@@H](Cc1ccc(Br)cc1)C(=O)O; Pro(cis-4-F) = O=C(O)[C@@H]1C[C@H](F)CN1; Cyclopentanecarbonyl = O=C(C1CCCC1)*; Butanoyl(3,3-Me2) = CC(C)(C)CC(=O)*; Hyp = O=C(O)[C@@H]1C[C@@H](O)CN1; tBuAla = CC(C)(C)C[C@H](N)C(=O)O; Pen = CC(C)(S)[C@H](N)C(=O)O; Tle = CC(C)(C)[C@H](N)C(=O)O; NMeC = CN[C@@H](CS)C(=O)O; Orn = NCCC[C@H](N)C(=O)O; Dap = NC[C@H](N)C(=O)O; PEG2 = NCCOCCOCCC(=O)O; Sar = CNCC(=O)O

T1: recombinant human MASP1 active protease (amino acids 297-699, C-terminal His Tag) (human, UniProt P48740 297-699)
T1 sequence: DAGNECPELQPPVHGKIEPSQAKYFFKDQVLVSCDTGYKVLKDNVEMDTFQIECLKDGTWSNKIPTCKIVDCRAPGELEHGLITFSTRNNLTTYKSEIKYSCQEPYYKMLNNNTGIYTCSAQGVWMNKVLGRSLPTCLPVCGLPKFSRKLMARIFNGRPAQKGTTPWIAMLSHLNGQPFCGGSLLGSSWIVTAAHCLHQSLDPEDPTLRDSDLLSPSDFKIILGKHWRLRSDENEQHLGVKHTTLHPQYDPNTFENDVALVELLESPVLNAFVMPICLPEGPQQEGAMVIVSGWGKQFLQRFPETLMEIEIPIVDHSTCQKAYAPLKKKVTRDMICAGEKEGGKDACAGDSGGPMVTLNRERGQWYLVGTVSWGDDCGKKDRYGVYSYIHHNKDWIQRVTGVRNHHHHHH


Legend:
[1] = biological target: T1, recombinant human MASP1 active protease …; test: cell-based or functional assay
[2] = biological target: recombinant human MASP2 active protease (amino acids 297-686, C-terminal His Tag) (human, UniProt O00187 297-686); test: cell-based or functional assay
Chain of recombinant human MASP2 active protease (amino acids 297-686, C-terminal His Tag) (O00187 other isoform, or with tags, fused parts or gaps limits assumed): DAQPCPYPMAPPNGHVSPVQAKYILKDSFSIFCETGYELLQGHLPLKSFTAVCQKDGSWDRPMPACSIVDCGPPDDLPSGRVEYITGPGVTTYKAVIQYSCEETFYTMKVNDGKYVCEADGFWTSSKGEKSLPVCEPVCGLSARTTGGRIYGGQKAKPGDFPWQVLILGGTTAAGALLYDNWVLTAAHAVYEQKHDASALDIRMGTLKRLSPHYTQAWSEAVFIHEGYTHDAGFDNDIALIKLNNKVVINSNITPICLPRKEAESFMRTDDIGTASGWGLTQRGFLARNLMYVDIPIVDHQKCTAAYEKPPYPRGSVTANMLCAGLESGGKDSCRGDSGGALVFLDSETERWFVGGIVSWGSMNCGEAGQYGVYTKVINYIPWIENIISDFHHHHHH

Binder | human MASP1 IC50 [1] [nM] | human MASP2 IC50 [2] [nM]
[Sar]ICSR[Dap]LPPICIPD-OH (disulfide 3-11; N-terminus assumed; SMILES CC[C@H](C)[C@H](NC(=O)CNC)C(=O)N[C@H]1CSSC[C@@H](C(=O)N[C@H](C(=O)N2CCC[C@H]2C(=O)N[C@@H](CC(=O)O)C(=O)O)[C@@H](C)CC)NC(=O)[C@H]([C@@H](C)CC)NC(=O)[C@@H]2CCCN2C(=O)[C@@H]2CCCN2C(=O)[C@H](CC(C)C)NC(=O)[C@H](CN)NC(=O)[C@H](CCCNC(=N)N)NC(=O)[C@H](CO)NC1=O) [Example 413: ((N-Me)G)-IC+SR-(Dap)-LPPIC+IPD-OH] | 78 | 2000
{2‑Hydroxyisobutyric}-ICSRS[tBuAla]PPICIPD-NH2 (disulfide 2-10) [Example 392: (2-Hydroxyisobutyric)-IC+SRS-((tBu)A)-PPIC+IPD-NH2] | 47 | 80
Cyclopentanecarbonyl-ICSRS[tBuAla]PPI[NMeC]I-NH2 (disulfide 2-10; SMILES CC[C@H](C)[C@H](NC(=O)[C@@H]1CSSC[C@H](NC(=O)[C@@H](NC(=O)C2CCCC2)[C@@H](C)CC)C(=O)N[C@@H](CO)C(=O)N[C@@H](CCCNC(=N)N)C(=O)N[C@@H](CO)C(=O)N[C@@H](CC(C)(C)C)C(=O)N2CCC[C@H]2C(=O)N2CCC[C@H]2C(=O)N[C@@H]([C@@H](C)CC)C(=O)N1C)C(N)=O) [Example 408: (Cyclopentanecarboxylic acid)-IC+SRS-((tBu)A)-PPI-((N-Me)C)+I-NH2] | 69 | 32
AICSRS[Tle]PPICIPD-NH2 (disulfide 3-11; N-terminus assumed; SMILES CC[C@H](C)[C@H](NC(=O)[C@H](C)N)C(=O)N[C@H]1CSSC[C@@H](C(=O)N[C@H](C(=O)N2CCC[C@H]2C(=O)N[C@@H](CC(=O)O)C(N)=O)[C@@H](C)CC)NC(=O)[C@H]([C@@H](C)CC)NC(=O)[C@@H]2CCCN2C(=O)[C@@H]2CCCN2C(=O)[C@H](C(C)(C)C)NC(=O)[C@H](CO)NC(=O)[C@H](CCCNC(=N)N)NC(=O)[C@H](CO)NC1=O) [Example 411: AIC+SRS-((tBu)G)-PPI-C+IPD-NH2] | 76 | 2500
[Sar]I[Pen]SRSLPPICIPD-OH (disulfide 3-11; N-terminus assumed; SMILES CC[C@H](C)[C@H](NC(=O)CNC)C(=O)N[C@@H]1C(=O)N[C@@H](CO)C(=O)N[C@@H](CCCNC(=N)N)C(=O)N[C@@H](CO)C(=O)N[C@@H](CC(C)C)C(=O)N2CCC[C@H]2C(=O)N2CCC[C@H]2C(=O)N[C@@H]([C@@H](C)CC)C(=O)N[C@H](C(=O)N[C@H](C(=O)N2CCC[C@H]2C(=O)N[C@@H](CC(=O)O)C(=O)O)[C@@H](C)CC)CSSC1(C)C) [Example 402: ((N-Me)G)-I-(Pen)+SRSLPPIC+IPD-OH] | 58 | 2100
{(2S,3S)‑2‑((3S)-2-oxopiperazin-1-yl)‑3‑methylpentanoic acid}-CSRSLPPICIAD-OH (disulfide 1-9) [Example 393: ((2S,3S)-2-[(3S)-2-oxopiperazin-1-yl]-3-methylpentanoic acid)-C+SRSLPPIC+IAD-OH] | 49 | 3800
GICSRSLP[Hyp]ICIPD-OH (disulfide 3-11; N-terminus assumed; SMILES CC[C@H](C)[C@H](NC(=O)CN)C(=O)N[C@H]1CSSC[C@@H](C(=O)N[C@H](C(=O)N2CCC[C@H]2C(=O)N[C@@H](CC(=O)O)C(=O)O)[C@@H](C)CC)NC(=O)[C@H]([C@@H](C)CC)NC(=O)[C@@H]2C[C@@H](O)CN2C(=O)[C@@H]2CCCN2C(=O)[C@H](CC(C)C)NC(=O)[C@H](CO)NC(=O)[C@H](CCCNC(=N)N)NC(=O)[C@H](CO)NC1=O) [Example 410: GIC+SRSLP-(Hyp)-IC+IPD-OH] | 76 | 2700
Pivalic-ICSRS[tBuAla]PPI[NMeC]I-NH2 (disulfide 2-10) [Example 398: (Pivalic)-IC+SRS-((tBu)A)-PPI-((N-Me)C)+I-NH2] | 54 | 22
[Sar]ICKRS[tBuAla]PPI[Pen]IP-NH2 (disulfide 3-11; N-terminus assumed; SMILES CC[C@H](C)[C@H](NC(=O)CNC)C(=O)N[C@H]1CSSC(C)(C)[C@@H](C(=O)N[C@H](C(=O)N2CCC[C@H]2C(N)=O)[C@@H](C)CC)NC(=O)[C@H]([C@@H](C)CC)NC(=O)[C@@H]2CCCN2C(=O)[C@@H]2CCCN2C(=O)[C@H](CC(C)(C)C)NC(=O)[C@H](CO)NC(=O)[C@H](CCCNC(=N)N)NC(=O)[C@H](CCCCN)NC1=O) [Example 412: ((N-Me)G)-IC+KRS-((tBu)A)-PPI-(Pen)+IP-NH2] | 77 | 5000
AICS[(Me)R]S[tBuAla]PPI[Pen]IPD-NH2 (disulfide 3-11; N-terminus assumed; SMILES CC[C@H](C)[C@H](NC(=O)[C@H](C)N)C(=O)N[C@H]1CSSC(C)(C)[C@@H](C(=O)N[C@H](C(=O)N2CCC[C@H]2C(=O)N[C@@H](CC(=O)O)C(N)=O)[C@@H](C)CC)NC(=O)[C@H]([C@@H](C)CC)NC(=O)[C@@H]2CCCN2C(=O)[C@@H]2CCCN2C(=O)[C@H](CC(C)(C)C)NC(=O)[C@H](CO)NC(=O)[C@H](CCCN(C)C(=N)N)NC(=O)[C@H](CO)NC1=O) [Example 403: AIC+S-((Me)R)-S-((tBu)A)-PPI-(Pen)+IPD-NH2] | 59 | 740
[Orn]AICSRS[tBuAla]PPI[NMeC]IPD-NH2 (disulfide 4-12; N-terminus assumed; SMILES CC[C@H](C)[C@H](NC(=O)[C@H](C)NC(=O)[C@@H](N)CCCN)C(=O)N[C@H]1CSSC[C@@H](C(=O)N[C@H](C(=O)N2CCC[C@H]2C(=O)N[C@@H](CC(=O)O)C(N)=O)[C@@H](C)CC)N(C)C(=O)[C@H]([C@@H](C)CC)NC(=O)[C@@H]2CCCN2C(=O)[C@@H]2CCCN2C(=O)[C@H](CC(C)(C)C)NC(=O)[C@H](CO)NC(=O)[C@H](CCCNC(=N)N)NC(=O)[C@H](CO)NC1=O) [Example 399: (Orn)-AIC+SRS-((tBu)A)-PPI-((N-Me)C)+IPD-NH2] | 55 | 520
GICSRSLP[Pro(cis-4-F)]ICIPD-OH (disulfide 3-11; N-terminus assumed; SMILES CC[C@H](C)[C@H](NC(=O)CN)C(=O)N[C@H]1CSSC[C@@H](C(=O)N[C@H](C(=O)N2CCC[C@H]2C(=O)N[C@@H](CC(=O)O)C(=O)O)[C@@H](C)CC)NC(=O)[C@H]([C@@H](C)CC)NC(=O)[C@@H]2C[C@H](F)CN2C(=O)[C@@H]2CCCN2C(=O)[C@H](CC(C)C)NC(=O)[C@H](CO)NC(=O)[C@H](CCCNC(=N)N)NC(=O)[C@H](CO)NC1=O) [Example 414: GIC+SRSLP-((cis-Fluoro)P)-IC+IPD-OH] | 86 | 4000
{Butanoyl(3,3-Me2)}-ICSRS[tBuAla]PPI[Pen]I-NH2 (disulfide 2-10; SMILES CC[C@H](C)[C@H](NC(=O)[C@H]1NC(=O)[C@H]([C@@H](C)CC)NC(=O)[C@@H]2CCCN2C(=O)[C@@H]2CCCN2C(=O)[C@H](CC(C)(C)C)NC(=O)[C@H](CO)NC(=O)[C@H](CCCNC(=N)N)NC(=O)[C@H](CO)NC(=O)[C@@H](NC(=O)[C@@H](NC(=O)CC(C)(C)C)[C@@H](C)CC)CSSC1(C)C)C(N)=O) [Example 396: (tert-Butylacetic acid)-IC+SRS-((tBu)A)-PPI-(Pen)+I-NH2] | 53 | 28
{(2S,3S)‑2‑(2-Oxopiperazin-1-yl)‑3‑methylpentanoic acid}-CSRSLPPICIPD-OH (disulfide 1-9) [Example 397: ((2S,3S)-2-[2-Oxopiperazin-1-yl]-3-methylpentanoic acid)-C+SRSLPPIC+IPD-OH] | 54 | 3800
GICSRS[Phe(4-Br)]PPICIPD-OH (disulfide 3-11; N-terminus assumed; SMILES CC[C@H](C)[C@H](NC(=O)CN)C(=O)N[C@H]1CSSC[C@@H](C(=O)N[C@H](C(=O)N2CCC[C@H]2C(=O)N[C@@H](CC(=O)O)C(=O)O)[C@@H](C)CC)NC(=O)[C@H]([C@@H](C)CC)NC(=O)[C@@H]2CCCN2C(=O)[C@@H]2CCCN2C(=O)[C@H](Cc2ccc(Br)cc2)NC(=O)[C@H](CO)NC(=O)[C@H](CCCNC(=N)N)NC(=O)[C@H](CO)NC1=O) [Example 416: GIC+SRS-((4-Bromo)F)-PPIC+IPD-OH] | 87 | 190
[PEG2]GICSRSLPPICIPD-OH (disulfide 4-12; N-terminus assumed; SMILES CC[C@H](C)[C@H](NC(=O)CNC(=O)CCOCCOCCN)C(=O)N[C@H]1CSSC[C@@H](C(=O)N[C@H](C(=O)N2CCC[C@H]2C(=O)N[C@@H](CC(=O)O)C(=O)O)[C@@H](C)CC)NC(=O)[C@H]([C@@H](C)CC)NC(=O)[C@@H]2CCCN2C(=O)[C@@H]2CCCN2C(=O)[C@H](CC(C)C)NC(=O)[C@H](CO)NC(=O)[C@H](CCCNC(=N)N)NC(=O)[C@H](CO)NC1=O) [Example 409: (PEG1(10 atoms))-GIC+SRSLPPIC+IPD-OH] | 71 | 570
[Sar][Orn][Orn][Orn]ICSRSLP[Oic]I[Pen]IP-NH2 (disulfide 6-14; N-terminus assumed; SMILES CC[C@H](C)[C@H](NC(=O)[C@H](CCCN)NC(=O)[C@H](CCCN)NC(=O)[C@H](CCCN)NC(=O)CNC)C(=O)N[C@H]1CSSC(C)(C)[C@@H](C(=O)N[C@H](C(=O)N2CCC[C@H]2C(N)=O)[C@@H](C)CC)NC(=O)[C@H]([C@@H](C)CC)NC(=O)[C@@H]2C[C@@H]3CCCC[C@@H]3N2C(=O)[C@@H]2CCCN2C(=O)[C@H](CC(C)C)NC(=O)[C@H](CO)NC(=O)[C@H](CCCNC(=N)N)NC(=O)[C@H](CO)NC1=O) [Example 405: ((N-Me)G)-(Orn)-(Orn)-(Orn)-IC+SRSLP-(Oic)-I-(Pen)+IP-NH2] | 63 | 980
